Numbering of substitutions follows the chain as printed. *1 amine or outer side, *2 acyl side, *3 side chain or, on linkers, in order; H or OH if unused. Where no end group is shown, it is not given here. Side-chain parts run from the residue outwards. [ ]: non-standard residue; d: D form. The star is where a group is joined. Decanoyl(10-(4-HOOC-PhO)) = O=C(O)c1ccc(OCCCCCCCCCC(=O)*)cc1; αMePhe(2-F) = C[C@](N)(Cc1ccccc1F)C(=O)O; γGlu = O=C(O)[C@H](CCC(=O)[*:2])N[*:1]; αMeY = C[C@](N)(Cc1ccc(O)cc1)C(=O)O; αMeL = CC(C)C[C@](C)(N)C(=O)O; Orn = NCCC[C@H](N)C(=O)O; AEEA = NCCOCCOCC(=O)O; Aib = CC(C)(N)C(=O)O
T1: human GIP receptor (human, UniProt P48546 22-466)
T1 sequence (looked up): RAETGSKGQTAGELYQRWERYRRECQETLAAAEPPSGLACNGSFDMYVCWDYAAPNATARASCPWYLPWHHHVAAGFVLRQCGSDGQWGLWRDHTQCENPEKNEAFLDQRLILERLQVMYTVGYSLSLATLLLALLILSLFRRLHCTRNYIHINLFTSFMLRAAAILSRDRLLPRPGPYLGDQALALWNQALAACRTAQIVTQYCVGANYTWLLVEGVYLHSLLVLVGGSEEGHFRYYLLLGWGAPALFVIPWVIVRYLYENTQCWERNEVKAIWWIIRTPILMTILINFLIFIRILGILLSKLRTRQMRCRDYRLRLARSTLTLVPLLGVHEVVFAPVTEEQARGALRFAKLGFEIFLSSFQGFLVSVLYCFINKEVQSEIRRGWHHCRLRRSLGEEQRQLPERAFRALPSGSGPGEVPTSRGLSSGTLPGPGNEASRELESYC

T2: human GIP receptor (human) (UniProt P48546)
T2 sequence (looked up): T1 sequence (looked up)

T3: human GIP receptor (human, UniProt P48546 22-466)
T3 sequence (looked up): T1 sequence (looked up)

B1: Example 442 (peptide)
peptide: YXEGTXTSDXXIXLDXQAQXXFIKXLIKGGPSSGAPPPS
modifications: Y-Aib-EGT-αMeF(2F)-TSD-4Pal-Aib-I-αMeL-LD-Orn-QAQ-Aib-Orn-FIK(2-[2-(2-Amino-ethoxy)-ethoxy]-acetyl)2-(γ-Glu)-(11-(4-carboxyphenoxy)undecanoyl)-αMeY-LIK((2-[2-(2-Amino-ethoxy)-ethoxy]-acetyl)2-(γ-Glu)-(11-(4-carboxyphenoxy)undecanoyl)GGPSSGAPPPS-NH2)
B2: Example 443 (peptide)
peptide: B1 peptide
modifications: Y-Aib-EGT-αMeF(2F)-TSD-4Pal-Aib-I-αMeL-LD-Orn-QAQ-Aib-Orn-FIK((2-[2-(2-Amino-ethoxy)-ethoxy]-acetyl)2-(γ-Glu)-CO-(CH2)14-CO2)-αMeY-LIK((2-[2-(2-Amino-ethoxy)-ethoxy]-acetyl)2-(γ-Glu)-CO-(CH2)14-CO2)GGPSSGAPPPS-NH2
B3: Example 364 (peptide)
peptide: B1 peptide with X10Y, Q17I, X21E
modifications: Y-Aib-EGT-αMeF(2F)-TSDY-Aib-I-αMeL-LD-Orn-IAQ-Aib-EFIK((2-[2-(2-Amino-ethoxy)-ethoxy]-acetyl)-(γ-Glu)-(2-[2-(2-Amino-ethoxy)-ethoxy]-acetyl)2-CO-(CH2)12-CO2H)-αMeY-LIK((2-[2-(2-Amino-ethoxy)-ethoxy]-acetyl)-(γ-Glu)-(2-[2-(2-Amino-ethoxy)-ethoxy]-acetyl)2-CO-(CH2)12-CO2H)GGPSSGAPPPS-NH2
B4: Example 444 (peptide)
peptide: B1 peptide
modifications: Y-Aib-EGT-αMeF(2F)-TSD-4Pal-Aib-I-αMeL-LD-Orn-QAQ-Aib-4Pal-FIK((2-[2-(2-Amino-ethoxy)-ethoxy]-acetyl)2-(γ-Glu)-CO-(CH2)12-CO2H)-αMeY-LIK((2-[2-(2-Amino-ethoxy)-ethoxy]-acetyl)2-(γ-Glu)-CO-(CH2)12-CO2H)GGPSSGAPPPS-NH2
B5: Example 440 (peptide)
peptide: B1 peptide
modifications: Y-Aib-EGT-αMeF(2F)-TSD-4Pal-Aib-I-αMeL-LD-Orn-QAQ-Aib-Orn-FIK((2-[2-(2-Amino-ethoxy)-ethoxy]-acetyl)2-(γ-Glu)-(10-(4-carboxyphenoxy)decanoyl))-αMeY-LIK((2-[2-(2-Amino-ethoxy)-ethoxy]-acetyl)2-(γ-Glu)-(10-(4-carboxyphenoxy)decanoyl))GGPSSGAPPPS-NH2
B6: Example 441 (peptide)
peptide: B1 peptide with I12G
modifications: Y-Aib-EGT-αMeF(2F)-TSD-4Pal-Aib-G-αMeL-LD-Orn-QAQ-Aib-Orn-FIK((2-[2-(2-Amino-ethoxy)-ethoxy]-acetyl)2-(γ-Glu)-CO-(CH2)12-CO2H)-αMeY-LIK((2-[2-(2-Amino-ethoxy)-ethoxy]-acetyl)2-(γ-Glu)-CO-(CH2)12-CO2H)GGPSSGAPPPS-NH2
B7: Example 354 (peptide)
peptide: B1 peptide with Q17I
modifications: Y-Aib-EGT-αMeF(2F)-TSD-4Pal-Aib-I-αMeL-LD-Orn-IAQ-Aib-Orn-FIK((2-[2-(2-Amino-ethoxy)-ethoxy]-acetyl)2-(γ-Glu)-(10-(4-carboxyphenoxy)decanoyl))-αMeY-LIK((2-[2-(2-Amino-ethoxy)-ethoxy]-acetyl)2-(γ-Glu)-(10-(4-carboxyphenoxy)decanoyl))GGPSSGAPPPS-NH2
B8: Example 412 (peptide)
peptide: B1 peptide with X10Y, X21E
modifications: Y-Aib-EGT-αMeF(2F)-TSDY-Aib-I-αMeL-LD-Orn-QAQ-Aib-EFIK((2-[2-(2-Amino-ethoxy)-ethoxy]-acetyl)2-(γ-Glu)-CO-(CH2)12-CO2H)-αMeY-LIK((2-[2-(2-Amino-ethoxy)-ethoxy]-acetyl)2-(γ-Glu)-CO-(CH2)12-CO2H)GGPSSGAPPPS-NH2
B9: Example 352 (peptide)
peptide: B1 peptide with X10Y, Q17K, K24X
modifications: Y-Aib-EGT-αMeF(2F)-TSDY-Aib-I-αMeL-LD-Orn-K((2-[2-(2-Amino-ethoxy)-ethoxy]-acetyl)2-(γ-Glu)-(10-(4-carboxyphenoxy)decanoyl))AQ-Aib-Om-FI-(D-Glu)-αMeY-LIK((2-[2-(2-Amino-ethoxy)-ethoxy]-acetyl)2-(γ-Glu)-(10-(4-carboxyphenoxy)decanoyl))GGPSSGAPPPS-NH2
B10: Example 446 (peptide)
peptide: Y[Aib]EGT[αMePhe(2-F)]TSDV[Aib]I[αMeL]LD[Orn]QAQ[Aib]EFIK([AEEA-AEEA-γGlu-Decanoyl(10-(4-HOOC-PhO))])[αMeY]LIK([AEEA-AEEA-γGlu-Decanoyl(10-(4-HOOC-PhO))])GGPSSGAPPPS-NH2

Assays:
Assay in all cases: cell-based or functional assay
[1] = target: T1, human GIP receptor
[2] = target: human glucagon receptor (human, UniProt P47871 26-477)
Target sequence in this assay (P47871 26-477): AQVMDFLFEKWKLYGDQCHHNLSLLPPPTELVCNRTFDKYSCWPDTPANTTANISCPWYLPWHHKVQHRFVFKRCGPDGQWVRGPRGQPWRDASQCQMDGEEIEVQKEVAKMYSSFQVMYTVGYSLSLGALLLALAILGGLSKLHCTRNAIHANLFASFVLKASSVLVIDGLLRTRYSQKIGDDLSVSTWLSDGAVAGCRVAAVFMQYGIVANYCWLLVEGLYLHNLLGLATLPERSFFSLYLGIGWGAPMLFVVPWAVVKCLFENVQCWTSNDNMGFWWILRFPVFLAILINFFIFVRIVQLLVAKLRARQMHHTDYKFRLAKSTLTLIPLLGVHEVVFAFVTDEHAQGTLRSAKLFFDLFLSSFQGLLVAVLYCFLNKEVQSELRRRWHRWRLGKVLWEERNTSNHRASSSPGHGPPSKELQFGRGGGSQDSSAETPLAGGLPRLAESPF

[3] = target: human GLP-1 receptor (human, UniProt P43220 24-463)
[4] = target: hGLP-1R (Homo sapiens, UniProt P43220)
[5] = target: human glucagon receptor (human) (UniProt P47871)
[6] = target: T2, human GIP receptor (human)
[7] = target: human GLP-1 receptor (human, UniProt P43220 24-463); remark: listed apart in the source
[8] = target: T3, human GIP receptor; remark: listed apart in the source
[9] = target: human glucagon receptor (human, UniProt P47871 26-477); remark: listed apart in the source

Binder	cAMP EC50 (1.0% HSA) [1] [nM]	cAMP EC50 (1.0% HSA) [2] [nM]	cAMP EC50 (1.0% HSA) [3] [nM]	cAMP Emax (1.0% HSA) [1] [%]	cAMP Emax (1.0% HSA) [3] [%]	also measured
B1	0.687	> 9950	7.63	–	–	–
B2	12.2	> 9950	133	–	–	–
B3	0.895	> 9950	13	–	–	–
B4	0.57	> 9950	7.51	–	–	–
B5	0.209	> 10100	2.74	–	–	–
B6	1.38	> 9950	5.75	83.8	111	–
B7	0.857	> 9950	7.25	67.5	95.9	–
B8	1.57	> 9950	18.3	87.5	–	–
B9	–	–	–	–	–	cAMP EC50 [4]: 0.262 nM; cAMP Emax [4]: 99.5%; cAMP EC50 [5]: > 9950 nM; cAMP EC50 [6]: 0.0106 nM; cAMP Emax [6]: 98.3%; cAMP EC50 (1.0% HSA) [7]: 5.46 nM; cAMP Emax (1.0% HSA) [7]: 93.5%; cAMP EC50 (1.0% HSA) [8]: 0.277 nM; cAMP Emax (1.0% HSA) [8]: 71.3%; cAMP EC50 (1.0% HSA) [9]: > 9950 nM
B10	5.14	> 9950	33.5	97	105	–

Source: patent publication US20230265151A1, “GIP/GLP1 CO-AGONIST COMPOUNDS” (priority 2020, published 2023)
